For test [1], the target named is T1, recombinant cynomolgus CD30L (cynomolgus, UniProt A0A7N9CVX7 63-234).
T1 construct: Purified recombinant protein; also called rcyCD30L; cyno CD30L
T1 sequence: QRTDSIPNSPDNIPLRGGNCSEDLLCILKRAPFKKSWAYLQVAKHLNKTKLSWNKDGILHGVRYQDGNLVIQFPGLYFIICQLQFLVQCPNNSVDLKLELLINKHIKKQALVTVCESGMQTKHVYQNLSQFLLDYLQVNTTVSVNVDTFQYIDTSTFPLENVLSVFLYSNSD
The experiment in a line: ELISA, blocking of CD30-Fc on rcyCD30L; competitor CD30-Fc. (An ELISA detects its analyte on a solid surface through an enzyme-linked reagent.)

Test [2] deals with T2, human CD30L expressed on B16 cells (human, UniProt P32971 1-234).
T2 sequence (looked up): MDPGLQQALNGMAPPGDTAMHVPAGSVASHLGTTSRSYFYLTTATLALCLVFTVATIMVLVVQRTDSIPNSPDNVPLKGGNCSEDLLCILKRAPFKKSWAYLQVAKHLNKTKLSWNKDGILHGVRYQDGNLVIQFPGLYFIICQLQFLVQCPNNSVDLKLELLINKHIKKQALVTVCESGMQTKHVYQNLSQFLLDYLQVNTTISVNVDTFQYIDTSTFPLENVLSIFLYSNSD
Nature of the test: cell-based or functional assay.

The target in test [3] is T3, recombinant human CD30L (human, UniProt P32971 63-234).
T3 construct: Purified recombinant protein of ELISA, BLI, Carterra and KinExA; also called rhCD30L; huCD30L
T3 sequence (looked up): T1 sequence with I13V, R16K, V142I, V165I
Nature of the test: ELISA, blocking of CD30-Fc on huCD30L; competitor CD30-Fc.

In test [4] the target is T3, recombinant human CD30L. Nature of the test: ELISA, Binding to CD30L, immobilized human CD30L (Absorbance 450 nm).
Test [5] concerns the target T4, cynomolgus CD30L expressed on HEK293 cells (cynomolgus, UniProt A0A7N9CVX7 1-234).
T4 construct: whole, on cells; also called HEK293-cyCD30L; HEK-cyCD30L
T4 sequence: T2 sequence (looked up) with A19T, M20T, G32E, L41F, V75I, K78R, I204V, I227V
The experiment in a line: flow cytometry, Cell Binding to HEK293-cyCD30L (MFI). A general note: A flow cytometer gives signals particle by particle.

For test [6], the target named is T2, human CD30L expressed on B16 cells. Nature of the test: flow cytometry, B16-huCD30L/CD30-Fc Neutralization: blocking of CD30-Fc binding to B16-huCD30L cells.
For test [7], the target named is T4, cynomolgus CD30L expressed on HEK293 …. The experiment in a line: flow cytometry, HEK293-cyCD30L/CD30-Fc Neutralization: blocking of CD30-Fc binding to HEK293-cyCD30L cells.
The target of test [8] is T3, recombinant human CD30L. The experiment in a line: ELISA, binding to purified rhCD30L.
Test [9] has as its target T2, human CD30L expressed on B16 cells. Nature of the test: cell-based or functional assay. This is another data set of the same source.
For test [10] the target is unchanged. Nature of the test: flow cytometry, binding to B16-rhCD30L cells.
For test [11] the target is unchanged. Nature of the test: flow cytometry, blocking of CD30-Fc on B16-huCD30L cells; competitor CD30-Fc.
Test [12] has as its target T1, recombinant cynomolgus CD30L. The experiment in a line: ELISA, Binding to CD30L, immobilized cyno CD30L (Absorbance 450 nm).
Test [13] shares this target. The experiment in a line: ELISA, Neutralization of CD30-Fc binding to immobilized cyno CD30L (Absorbance 450 nm).
In test [14] the target is T4, cynomolgus CD30L expressed on HEK293 …. Nature of the test: cell-based or functional assay.
The target of test [15] is T2, human CD30L expressed on B16 cells. The experiment in a line: cell-based or functional assay. The source holds these as a separate data set.
Test [16] has as its target T3, recombinant human CD30L. The experiment in a line: ELISA, binding to rhCD30L (OD 450 nm).
Test [17] has as its target T1, recombinant cynomolgus CD30L. The experiment in a line: ELISA, binding to purified rcyCD30L.
Test [18] deals with T4, cynomolgus CD30L expressed on HEK293 …. The experiment in a line: flow cytometry, blocking of CD30-Fc on HEK293-cyCD30L cells; competitor CD30-Fc.
Test [19] shares this target. Nature of the test: flow cytometry, binding to HEK293-cyCD30L cells.
In test [20] the target is T3, recombinant human CD30L. The experiment in a line: ELISA, blocking of CD30-Fc binding to huCD30L (OD 450 nm).
Test [21] addresses T3, recombinant human CD30L. The experiment in a line: ELISA, Neutralization of CD30-Fc binding to immobilized human CD30L (Absorbance 450 nm).
The target in test [22] is T1, recombinant cynomolgus CD30L. Nature of the test: KinExA, calculated as KD x kon.
Experimental: (§1) To more precisely define and compare the binding affinities (dissociation equilibrium constant, KD), the association rate constant (on rate, kₒₙ), and the dissociation rate constant (off rate, koff), the kinetic exclusion assay (KinExA) was performed. KinExA measures the equilibrium binding affinity and kinetics between unmodified binding molecules in solution. For affinity analysis, the equilibrium dissociation constant, KD, is experimentally determined and reflects the strength of the binding interaction. The rate of association, kₒₙ, is also experimentally determined, while the rate of dissociation, koff, is calculated based on the equation: koff=Kd×kₒₙ.
A KD analysis requires immobilization of one interaction partner to a solid phase which is then used as a probe to capture the other interaction partner, the constant binding partner (Fab). For each experiment, CD30L antigen is titrated in a background of the Fab and allowed to reach equilibrium. The solutions are then briefly exposed to the solid phase and a portion of free Fab is captured. The captured Fab is then labeled with a fluorescent secondary molecule. The short contact time with the solid phase is less than the time needed for dissociation of the pre-formed complex in solution, thus competition between the solution and the solid phase titrated binding partner is kinetically excluded.
Test [23] addresses T3, recombinant human CD30L. Nature of the test: KinExA, calculated as KD x kon.
Experimental: as §1
In test [24] the target is T3, recombinant human CD30L. The experiment in a line: KinExA, Fab in solution. In general terms: A kinetic exclusion assay measures how much of one partner remains free in solution.
Text: (§2) For each experiment, CD30L antigen is titrated in a background of the Fab and allowed to reach equilibrium. The solutions are then briefly exposed to the solid phase and a portion of free Fab is captured. The captured Fab is then labeled with a fluorescent secondary molecule. The short contact time with the solid phase is less than the time needed for dissociation of the pre-formed complex in solution, thus competition between the solution and the solid phase titrated binding partner is kinetically excluded.
(§3) The signals generated from the captured Fab, which are directly proportional to the concentration of free Fab in the equilibrated samples, are used to determine the KD value. The KinExA Pro software performs a least squares analysis on the measured data to fit optimal solution for the KD and the activity of the Fab to a curve representative of a 1:1 reversible bi-molecular interaction.
Test [25] has as its target T1, recombinant cynomolgus CD30L. Nature of the test: KinExA, Fab in solution.
Text: as §2, §3
For test [26], the target named is T5, recombinant human CD30L protein (human, UniProt P32971 63-234).
T5 construct: also called rhCD30L; huCD30L (ELISA)
T5 sequence (looked up): T1 sequence with I13V, R16K, V142I, V165I
The experiment in a line: KinExA, Fab, human CD30L; reference Fab of Ref1.
Text: as §2, §3

The target of test [27] is T6, human CD30L expressed on cells (human, UniProt P32971 1-234).
T6 construct: also called huCD30L; B16-huCD30L
T6 sequence: T2 sequence (looked up)
The experiment in a line: flow cytometry, blocking of CD30-Fc binding to human CD30L on cells; reference Ref1.

In test [28] the target is T7, cynomolgus CD30L expressed on cells (cynomolgus, UniProt A0A7N9CVX7 1-234).
T7 construct: whole, on cells; also called cyCD30L; HEK293-cyCD30L
T7 sequence: T2 sequence (looked up) with A19T, M20T, G32E, L41F, V75I, K78R, I204V, I227V
The experiment in a line: flow cytometry, blocking of CD30-Fc binding to cyno CD30L on cells; reference Ref1.

Another test deals with T8, CDH13 (human, UniProt P55290 139-693).
T8 construct: whole, on cells; also called hit #16
T8 sequence (looked up): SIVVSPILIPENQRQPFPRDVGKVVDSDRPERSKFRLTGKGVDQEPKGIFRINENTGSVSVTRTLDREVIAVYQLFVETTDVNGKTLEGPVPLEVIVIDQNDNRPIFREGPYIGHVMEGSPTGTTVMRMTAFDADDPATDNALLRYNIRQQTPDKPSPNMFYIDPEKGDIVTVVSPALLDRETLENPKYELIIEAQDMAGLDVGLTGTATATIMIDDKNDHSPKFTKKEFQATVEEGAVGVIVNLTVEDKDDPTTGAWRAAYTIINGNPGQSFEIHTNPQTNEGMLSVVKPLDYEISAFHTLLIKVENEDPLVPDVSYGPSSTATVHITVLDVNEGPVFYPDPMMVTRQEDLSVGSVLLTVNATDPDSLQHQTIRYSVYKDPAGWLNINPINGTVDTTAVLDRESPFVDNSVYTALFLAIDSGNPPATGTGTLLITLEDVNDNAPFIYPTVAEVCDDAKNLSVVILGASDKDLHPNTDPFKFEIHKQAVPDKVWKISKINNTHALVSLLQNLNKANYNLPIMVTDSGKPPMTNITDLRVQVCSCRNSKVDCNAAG
Nature of the test: cell microarray, library and confirmation screens.

The target of test [29] is T3, recombinant human CD30L. The experiment in a line: KinExA, Fab in solution. The source holds these as a separate data set.
Text: as §2, §3
For test [30], the target named is T3, recombinant human CD30L. Nature of the test: KinExA, calculated as KD x kon. The source holds these as a separate data set.
Experimental: as §1

Positions count from the first letter of the chain named. Where two headings read alike, the source gives them in different places.

B1: anti-CD30L antibody clone 2 germlined (antibody, V domains shown)
VH: EVQLVESGGGLVQPGRSLRLSCAASGFNFDDYAMHWVRQAPGKGLEWVSGISWRSGNIGYADSVKGRFTISRDNAKNSLYLQMNSLRAEDTALYYCAKDKGIGFNWNYEGFDYWGQGTLVTVSS
VL: DIQMTQSPSSLSASVGDRVTITCRASQGISNHLAWFQQKPGKAPKSLIYAASSLQSGVPSRFSGSGSGTDFTLTISSLQPEDFATYYCQQYVTYPLTFGGGTKVEIK
notes: also called germlined clone 2
For B1, the IC50 (commonly the point on the concentration scale where inhibition reaches its midpoint) in test [1] amounted to 1.53 nM; in the test with recombinant human CD30L [3], 1.92 nM; in test [11], 0.67 nM; in test [18], 0.34 nM. Further, the “IC50 (read off the curve), IL-8 release, dual cell assay (B16-huCD30L cells + K299 cells)” value in test [2] was about 1 nM. Further, the EC50 (read off the curve) (in general, the concentration needed to bring the measured effect to its halfway point) with recombinant human CD30L [4] was about 0.03 nM; in test [5], about 0.3 nM; in test [12], about 0.03 nM; with recombinant human CD30L [16], about 0.1 nM. The “IC50 (read off the curve)” value in test [6] is about 0.4 nM; in test [7], about 0.3 nM; in test [13], about 2 nM; with recombinant human CD30L [20], about 2 nM; with recombinant human CD30L [21] it was about 2 nM. Moreover, the concentration for a half-maximal effect (EC50) (in general, the concentration that produces a half-maximal response) in the test with recombinant human CD30L [8] was 0.03 nM; in [10], 0.64 nM; in test [17], 0.05 nM; in test [19], 0.33 nM. For the same molecule, the “IC50 (read off the curve), IL-8 release, Dual Assay K299 + B16-huCD30L” value in test [9] was about 1 nM. For the same molecule, the “Inhibition of IL-8 release in a dual cell assay (HEK293-cyCD30L cells + K299 cells) IC50” value in test [14] amounted to 0.41 nM. In addition, the “Inhibition of IL-8 release in a dual cell assay (B16-huCD30L cells + K299 cells) IC50” value in test [15] stood at 0.89 nM.

B2: Fab of clone 2 germlined (Fab, V domains shown)
VH: B1 VH
VL: B1 VL
notes: Fab; also called Fab of a representative anti-CD30L, clone 2 germlined
As to B2, the dissociation rate constant (koff) – broadly, the rate constant with which the complex falls apart – in [22] is 0.000378 s⁻¹; in the test with recombinant human CD30L [23], 0.000141 s⁻¹. Also, the dissociation constant (Kd) – broadly, the equilibrium constant for the complex coming apart – in the test with recombinant human CD30L [24] was 0.0905 nM; in [25], 0.122 nM. The kon (as a rule, a measure of how fast the partners come together) came to 1.55e+06 M⁻¹ s⁻¹ in the test with recombinant human CD30L [24] and 3.1e+06 M⁻¹ s⁻¹ in test [25].

B3: Fab of clone 2 germlined (Fab, V domains shown)
VH: B1 VH
VL: B1 VL
notes: Fab used in KinExA; also called Fab of a representative anti-CD30L, clone 2 germlined
As to B3, in test [26], the “fold difference in KD against the reference 1 anti-CD30L” value is 4.2 fold.

B4: anti-CD30L antibody clone 2 germlined with IgG1 constant region SEQ ID NO: 502 (antibody)
heavy: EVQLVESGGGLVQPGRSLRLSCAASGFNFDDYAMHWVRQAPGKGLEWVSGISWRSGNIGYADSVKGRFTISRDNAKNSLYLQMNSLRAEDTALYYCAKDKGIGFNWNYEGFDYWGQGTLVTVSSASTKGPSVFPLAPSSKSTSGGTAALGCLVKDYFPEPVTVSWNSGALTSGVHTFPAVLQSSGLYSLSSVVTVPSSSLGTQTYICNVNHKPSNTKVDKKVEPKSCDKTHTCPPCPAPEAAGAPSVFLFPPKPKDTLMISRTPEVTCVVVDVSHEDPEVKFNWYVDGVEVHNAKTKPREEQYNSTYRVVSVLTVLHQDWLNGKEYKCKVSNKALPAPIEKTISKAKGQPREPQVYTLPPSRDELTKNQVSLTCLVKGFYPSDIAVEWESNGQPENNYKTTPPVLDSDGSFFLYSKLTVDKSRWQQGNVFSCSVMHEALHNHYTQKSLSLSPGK
VL: B1 VL
notes: also called germlined clone 2; copies: 2 + 2
As to B4, the figures for the “fold better IC50 than reference 1 (ref1) anti-CD30L” value in test [27] and in test [28] were 2.74 fold and 2.13 fold, respectively. The binding result with CDH13 is “no binding (tested: 5 µg/mL)”.

B5: Fab of the reference 1 (ref1) anti-CD30L (Fab, V domains shown)
VH: QVQLQESGPGLVKPSETLSLTCTVSGGSISSYIWSWIRQPAGKGLEWIGRIYASGNTNYNPSLKSRVTISVDTSKNQFSLKLSSMTAADTAVYYCARDYRVAGTYYYYYGLDVWGQGTTVTVSS
VL: QSALTQPASVSGSPGQSITISCTGTSSDVGVYDYVSWYQQHPGKAPKLMIYEVSNRPSGVSNRFSGSKSGNTASLTISGLQTEDEADYYCSSYTSRSTWVFGGGTKLTVL
notes: Fab
As to B5, in the test with recombinant human CD30L [29], the dissociation constant Kd was 0.377 nM and the kon stood at 937000 M⁻¹ s⁻¹. Also, the koff in the test with recombinant human CD30L [30] is 0.000353 s⁻¹.
